This passage reports self-cleavage results from the RNAGym collection of RNA variant scans (doi:10.7554/elife.80360).

Sequences and labels used below:
B1: Hairpin Ribozyme (parent)
chain: GUCCUCUUUCACGUGCGCGUGAAAGAGAGAAGUGAACCAGAGAAACACACGUUGUGGUAUAUUACCUGGUA

Variants of B1 are the subject of the series. Put plainly: self-cleavage, relative activity (ratio to wild type); higher = more cleavage; co-transcriptional.
For U62C A64C, the self-cleavage came out at 0.149.
On to C50G A64C, for which the self-cleavage worked out at 0.201.
Regarding A31C A35U, the self-cleavage came out at 0.181.
In the case of C48G U60C, the self-cleavage turned out to be 0.0854.
In the case of U5C G29C, the self-cleavage was 0.205.
With A44G C48A the figure was 0.102; with C16G G17U, 1.08; with G17U C66G, 0.158.
For the variant C4A G40A, the self-cleavage was 0.133.
The result for C3A G42A reads 0.146; that for C38U G56A, 0.106; that for A24C A71G, 0.99.
The result for C3A C16A reads 0.677; that for A41C A49C, 0.217; that for U14C A30U, 0.148.
With G40C C48G, the self-cleavage was found to be 0.127.
As to C4A G27A, the self-cleavage was determined as 0.285.
With A30G G56C, the self-cleavage was found to be 0.0815.
In the case of C4U U53A, the self-cleavage amounted to 0.358.
With C48A A71U the figure was 0.129; with A11U U52G, 0.362; with C4A G69U, 0.169.
The result for U7A G25A reads 0.249; that for C38G U62C, 0.236.
The result for C50U A64C reads 0.159; that for G56A G69C, 0.108; that for C37A U55A, 0.121.
With G21C U52C, the self-cleavage was found to be 0.971.
Take U55G U70G: the self-cleavage turned out to be 0.17.
With C12A A24G the figure was 0.676; with C10U G54C, 0.444.
With C6A A45U the figure was 0.179.
As to G15U G54A, the self-cleavage amounted to 0.695.
The result for A39U U55A reads 0.155; that for C37G U62G, 0.138.
The result for C37A A39U reads 0.0999; that for G25C G57A, 0.176.
For A30C G32C, the self-cleavage worked out at 0.12.
Consider A39C U63A, for which the self-cleavage was determined as 0.17.
Regarding A24U C38G, the self-cleavage turned out to be 0.135.
As to C18A U63C, the self-cleavage was determined as 0.0808.
U20G A22U: the self-cleavage was determined as 0.868.
The result for C10A G19C reads 0.509.
The result for U14G G42A reads 0.163; that for U7G C37A, 0.335; that for U5G A22G, 0.251.
For G40C G68C, the self-cleavage was determined as 0.0987.
As to C48G A71G, the self-cleavage was found to be 0.142.
As to G15C A26G, the self-cleavage is 1.03.
With U58A U70A the figure was 0.588; with C18U A23G, 0.857; with U14A A59C, 0.179.
The result for A22C G32A reads 0.178; that for C50U C66A, 0.165; that for A43U U52C, 0.143.
Take G57U C66U: the self-cleavage amounted to 0.244.
For A26U U67A, the self-cleavage was determined as 0.196.
Turning to U9C U58G, the self-cleavage was 0.729.
For U7C U63C, the self-cleavage was 0.256.
As for G19U U62G, the self-cleavage came out at 0.24.
With A31U U58G the figure was 0.18; with G25C U55A, 0.163.
The result for C46G U58A reads 0.256; that for G29A, 0.126; that for G21C A43U, 0.0826.
In the case of G21U A23C, the self-cleavage came out at 0.595.
Take A44G A61G: the self-cleavage amounted to 0.152.
The result for C4A A26G reads 0.17; that for C46U A71G, 0.302; that for G25A U52A, 0.643.
For U2A U70A, the self-cleavage amounted to 0.331.
With C16U G27A the figure was 0.536.
In the case of C50U G68U, the self-cleavage turned out to be 0.16.
The result for C18U A30C reads 0.21; that for A31U U63C, 0.247; that for A45C A64G, 0.259.
In the case of A36G G51C, the self-cleavage turned out to be 0.629.
The result for C4A G34A reads 0.37; that for G25C C65U, 0.324; that for U2A A47U, 0.0626.
The result for A31G U62G reads 0.199; that for U9C U70A, 0.669; that for C16G U63G, 0.182.
In the case of G25C A59G, the self-cleavage came out at 0.123.
With G17A A49C the figure was 0.243; with G68U G69U, 0.183.
The result for G21A U67G reads 0.241; that for G1A A49C, 0.0908; that for G17C C46G, 0.074.
For the variant A22C A30U, the self-cleavage stood at 0.0473.
Regarding A28G A39U, the self-cleavage was determined as 0.536.
The result for C10G G32C reads 0.207; that for U2C A23U, 0.185; that for G17C U63G, 0.125.
Take U33G U58A: the self-cleavage turned out to be 0.0636.
The result for U55A A64C reads 0.13.
As for C18U A49U, the self-cleavage is 0.141.
With G57C U63C the figure was 0.272.
With C10U U52A the figure was 0.761.
With G54C G57U the figure was 0.217; with G34C C38A, 0.563; with G15U A61U, 0.182.
On to C12A A64C, for which the self-cleavage stood at 0.101.
With G27A U58G the figure was 0.151; with U8C G25U, 0.32; with U14A A49U, 0.13.
With G1A U9A, the self-cleavage worked out at 0.198.
The result for G27U G42U reads 0.188; that for C12G C48G, 0.0599.
Take U14G U67G: the self-cleavage turned out to be 0.243.
In the case of G13C A61U, the self-cleavage came to 0.161.
As to U8G G19C, the self-cleavage is 0.36.
With C12A G69C the figure was 0.275; with A61U C65U, 0.188.
Take A36C G69U: the self-cleavage was 0.227.
The result for A23G G54U reads 0.586; that for G27U C38G, 0.17; that for A45C G56U, 0.203.
A44G C50G: the self-cleavage amounted to 0.164.
On to C46A U62A, for which the self-cleavage was found to be 0.132.
With C6U A23U the figure was 0.615; with U20C G27C, 0.169.
With C50A C65G the figure was 0.0746.
As for C46G G51C, the self-cleavage came out at 0.0873.
The result for U14A C46A reads 0.232; that for C10G A64G, 0.397; that for C6A U53C, 0.517.
With G32U U55A the figure was 0.0859; with C38A G51U, 0.195.
The result for G17C U20A reads 0.736; that for G29A U60A, 0.137.
For A28C U33A, the self-cleavage amounted to 0.145.
With U2G C3G the figure was 0.785; with C4U C37G, 0.147; with G15C A59G, 0.104.
Take G29U A30C: the self-cleavage amounted to 0.154.
The result for C48A G51U reads 0.141; that for A26G C38G, 0.138.
As for A44U G57A, the self-cleavage worked out at 0.0753.
The result for G13U G19C reads 0.686; that for U5G U14A, 0.204; that for A11U G42U, 0.171.
C46A C65A: the self-cleavage worked out at 0.13.
As for C3A A61G, the self-cleavage was found to be 0.186.
For A24U C65A, the self-cleavage turned out to be 0.734.
C12G A64U: the self-cleavage turned out to be 0.173.
Turning to G40A U67A, the self-cleavage stood at 0.108.
The result for U2G C50A reads 0.15; that for C6A C18A, 0.649.
For U20C U58C, the self-cleavage is 0.893.
With A41G A59C the figure was 0.436; with G32C C37U, 0.131.
As for A28G U55G, the self-cleavage was found to be 0.427.
The result for A11C U58C reads 1.16.
Turning to A11C U58A, the self-cleavage amounted to 0.635.
For C50G G57U, the self-cleavage stood at 0.307.
With G34U G40A the figure was 0.751.
Consider G27U C48U, for which the self-cleavage came to 0.099.
The result for G27A C50G reads 0.131; that for C48G, 0.153; that for C3A A36G, 0.712.
Turning to U33A G40A, the self-cleavage was 0.108.
Consider A11G U55G, for which the self-cleavage stood at 0.223.
Consider G15C U58A, for which the self-cleavage is 0.751.
With A11C U53G the figure was 0.863.
With A64C G68A the figure was 0.18; with C12U U33A, 0.205.
